Test results: patent US20050064507A1, “Determining kinase specificity” (priority 2003, published 2005)

What was measured:
Assay type in all cases: biochemical
Details in all cases: normalized to best substrate
[1] = biological target: T1, PKC-theta (Homo sapiens, UniProt Q04759); experiment: In vitro kinase assay: peptide phosphorylation by PKC-theta
T1 construct: His-tag; made in house; host or cells: baculovirus-infected Sf9 cells
Summary of the method: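 Recombinant human PKC-theta, expressed in baculovirus-infected Sf9 cells and purified on a nickel chelating column, was incubated with biotinylated peptides, 100 μM ATP containing ^32P-gamma ATP, and PKC buffer with CaCl2, MgCl2, phosphatidyl serine and PMA at 30° C. Reactions were stopped with ATP/EDTA. Peptides were captured on streptavidin-coated plates, and phosphorylation was normalized to the best substrate.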

[2] = biological target: T2, PKA (Homo sapiens, UniProt P17612); experiment: In vitro kinase assay: peptide phosphorylation by PKA
T2 construct: purchased Calbiochem
Protocol: (§1) Catalytically active preparations of the kinases of interest were either purchased or prepared. Purchased and tested active kinase preparations including the following: PKC-alpha, PKC-delta, PKC-epsilon, PKC-zeta, PKC-mu, PKA, PKG from Calbiochem, ROK alpha/ROCK-II, active from Upstate Biotechnology, and AKT1 from Panvera.
(§2) The conditions of the kinase assay and the amount of active kinase used varied with the kinase and with the accuracy needed. For a typical experiment, 5-20 ng of kinase was used per well and each peptide pool was assayed in duplicate wells. Note that the absolute amount of kinase used was not usually a critical parameter, because the desired information related to specificity of the kinase not its absolute activity, and robustness of the assay depends on comparisons of the same amount of kinase on different peptides. The combination of kinase concentration and assay duration was modified to assure that the stoichiometry of peptide phosphorylation never exceeded 5%. The choice of kinase buffer depended on the kinase being analyzed. For studies of PKC, 100 mM HEPES, 0.05% Triton-X100, 1 mM CaCl2, 20 mM MgCl2, 0.2 mg/ml phosphatidyl serine (Avanti Polar Lipids), PMA 100 ng/ml was typically used. The lipid stock was prepared by transferring 3 mg phosphatidyl serine into iced mixture of 450 μl water plus 50 μl of 10% Triton-X100, sonicating 10 times on ice for 1 sec each.
(§3) The kinase reaction mixture was assembled by sequential addition to a tube held on ice of: 5 μl peptide (100 μM for final concentration of 10 μM), 15 μl of kinase (typically 5 ng/well, in appropriate kinase buffer), 30 μl of ATP (1 uCi/well of ^32P-gamma ATP in a stock of 167 μM cold ATP in the kinase buffer; for final concentration for 100 μM ATP). The mixture was rapidly warmed to desired reaction temperature (30° C. for PKC) and incubated for the desired duration (usually 10 minutes). The kinase assay was terminated by transfer to 4° C. water batch, and rapid addition of an equal volume (50 μl) of stop solution [0.1M ATP+0.1M EDTA in water, pH 8].
(§4) The peptides were then captured from the reaction mixture by transfer to a Reacti-Bind Streptavidin High Binding Capacity Coated Plates (HBC) (Pierce Biotechnology) as follows. The HBC plates were pre-rinsed three times with PBS/Tween PBS/Tween20 0.05% (PBS/Tween). Part of all of the reaction mixture was then transferred wells of a HBC plate pre-filled with 90 μl of phosphate-buffered saline (PBS); typically each aliquots of each phosphorylation reaction were transferred to duplicate HBC plates to assure accuracy by additional replication
(§5) For kinase assays done at the standard peptide concentration of 10 μM, the peptide concentration in the reaction mixture becomes 5 μM after addition of the stop solution; consequently 10 μl of the reaction (50 pMoles of peptide) was transferred to the HBC plate. More generally, the amount of reaction mixture transferred was estimated to be about 50 pMoles of peptide. […] The HBC plates were incubated for 0.5 to 1.5 hr at room temperature for complete binding of biotinylated peptides to plate-bound streptavidin. The HBC plates were then washed extensively with PBS/Tween. Five washes were done routinely and additional wash steps were added if the wash solution removed from the plate had measurable radioactivity as detected using a Geiger counter. This step is essential to obtaining a good the signal to noise ratio because the fraction of radioactivity incorporated in the peptides was a tiny fraction of the total in the reaction mixture. The wells were air-dried. A volume of 40-50 μl of microScint-20 (Packard Instruments) was added to each well. The plates were covered with stick-on film sheet. Radioactive emissions were measured in a TopCount NXT Microplate Scintillation and Luminescence Counter (Packard Instruments). Typically samples were counted for 5 minutes (or more) to improve the signal to noise ratio when counts were low. […]

[3] = biological target: T3, AKT1 (Homo sapiens, UniProt P31749); experiment: In vitro kinase assay: peptide phosphorylation by AKT1
T3 construct: purchased Panvera
Protocol: as §1, §2, §3, §4, §5

T1 sequence (Q04759 whole entry): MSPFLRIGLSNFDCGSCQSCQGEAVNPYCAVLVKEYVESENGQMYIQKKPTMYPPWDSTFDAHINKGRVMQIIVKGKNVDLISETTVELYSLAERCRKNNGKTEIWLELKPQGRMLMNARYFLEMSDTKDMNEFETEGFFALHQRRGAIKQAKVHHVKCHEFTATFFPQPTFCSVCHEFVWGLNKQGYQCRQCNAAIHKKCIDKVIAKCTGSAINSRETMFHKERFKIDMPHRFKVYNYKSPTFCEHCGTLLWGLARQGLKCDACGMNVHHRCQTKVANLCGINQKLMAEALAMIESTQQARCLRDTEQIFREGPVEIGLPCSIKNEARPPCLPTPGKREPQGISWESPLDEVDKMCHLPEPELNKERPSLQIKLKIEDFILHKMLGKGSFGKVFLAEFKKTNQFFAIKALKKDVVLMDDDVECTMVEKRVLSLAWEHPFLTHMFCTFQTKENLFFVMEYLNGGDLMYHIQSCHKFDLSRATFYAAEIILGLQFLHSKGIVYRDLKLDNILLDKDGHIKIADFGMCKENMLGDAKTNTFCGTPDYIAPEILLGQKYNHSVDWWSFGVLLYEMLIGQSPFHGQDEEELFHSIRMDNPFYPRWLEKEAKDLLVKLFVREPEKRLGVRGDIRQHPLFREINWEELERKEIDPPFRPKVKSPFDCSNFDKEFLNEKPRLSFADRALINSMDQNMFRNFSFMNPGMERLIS
T3 sequence (P31749 whole entry, species assumed): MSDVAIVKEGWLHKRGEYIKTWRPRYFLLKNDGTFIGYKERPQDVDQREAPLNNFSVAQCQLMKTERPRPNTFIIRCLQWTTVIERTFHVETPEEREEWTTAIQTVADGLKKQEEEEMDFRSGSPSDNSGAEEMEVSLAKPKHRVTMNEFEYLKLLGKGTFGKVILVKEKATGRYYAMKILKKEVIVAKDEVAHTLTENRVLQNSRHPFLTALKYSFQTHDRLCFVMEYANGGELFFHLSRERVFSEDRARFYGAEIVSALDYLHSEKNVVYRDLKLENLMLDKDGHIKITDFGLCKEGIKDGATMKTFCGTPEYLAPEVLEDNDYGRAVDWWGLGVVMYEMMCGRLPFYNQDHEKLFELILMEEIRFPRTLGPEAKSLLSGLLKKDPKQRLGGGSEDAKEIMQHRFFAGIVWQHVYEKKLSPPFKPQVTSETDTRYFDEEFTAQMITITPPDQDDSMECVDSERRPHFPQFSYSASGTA

108 (KATTKKRTLRKNDRK) [compound 108]
PKC theta phosphorylation [1]: 32%
PKA phosphorylation [2]: 0%
AKT1 phosphorylation [3]: 1%

109 (KEVVRTDSLKGRRGR) [compound 109]
PKC theta phosphorylation [1]: 9%
PKA phosphorylation [2]: 1%
AKT1 phosphorylation [3]: 2%

110 (EGGDRRASGRRK) [compound 110]
PKC theta phosphorylation [1]: 22%
PKA phosphorylation [2]: 1%
AKT1 phosphorylation [3]: 1%

111 (KKKRFSFKKSFKLSGFSFKK) [compound 111]
PKC theta phosphorylation [1]: 18%
PKA phosphorylation [2]: 3%
AKT1 phosphorylation [3]: 3%

112 (KRPGKKGSNKRPGKR) [compound 112]
PKC theta phosphorylation [1]: 17%
PKA phosphorylation [2]: 0%
AKT1 phosphorylation [3]: 3%

113 (GENVLKKSMKSRVKG) [compound 113]
PKC theta phosphorylation [1]: 10%
PKA phosphorylation [2]: 0%
AKT1 phosphorylation [3]: 9%
